Assay results: US6383761B1, “Methods and compositions for identifying modulators of G-protein-coupled receptors” (The Regents of the University of California, priority 1997, dated 2002)

Experiments:
[1] = molecular target: T1, D2 dopamine receptor (Homo sapiens, UniProt P14416); type: cell-based
T1 construct: expressed in transfected cells; host or cells: COS-7

[2] = molecular target: T2, m2 muscarinic receptor (Homo sapiens, UniProt P08172); experiment: PI hydrolysis assay (IP1 accumulation) in COS-7 cells co-transfected with receptor and Gαq construct; type: cell-based; conditions: carbachol 100 μM, pertussis toxin pretreatment 500 ng/ml
T2 sequence (P08172 1-466): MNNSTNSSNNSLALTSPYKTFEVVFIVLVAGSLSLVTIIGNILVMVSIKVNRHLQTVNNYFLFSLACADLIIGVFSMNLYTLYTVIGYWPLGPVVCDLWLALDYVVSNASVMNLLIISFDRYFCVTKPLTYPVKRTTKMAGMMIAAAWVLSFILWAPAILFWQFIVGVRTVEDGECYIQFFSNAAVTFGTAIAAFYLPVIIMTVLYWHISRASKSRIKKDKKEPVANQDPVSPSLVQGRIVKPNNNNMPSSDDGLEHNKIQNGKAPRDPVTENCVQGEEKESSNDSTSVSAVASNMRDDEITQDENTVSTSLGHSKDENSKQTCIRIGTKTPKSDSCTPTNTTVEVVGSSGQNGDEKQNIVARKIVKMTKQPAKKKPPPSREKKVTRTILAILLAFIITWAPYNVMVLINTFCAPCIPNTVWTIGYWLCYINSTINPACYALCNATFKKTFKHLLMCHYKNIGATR

T1 sequence (P14416 whole entry): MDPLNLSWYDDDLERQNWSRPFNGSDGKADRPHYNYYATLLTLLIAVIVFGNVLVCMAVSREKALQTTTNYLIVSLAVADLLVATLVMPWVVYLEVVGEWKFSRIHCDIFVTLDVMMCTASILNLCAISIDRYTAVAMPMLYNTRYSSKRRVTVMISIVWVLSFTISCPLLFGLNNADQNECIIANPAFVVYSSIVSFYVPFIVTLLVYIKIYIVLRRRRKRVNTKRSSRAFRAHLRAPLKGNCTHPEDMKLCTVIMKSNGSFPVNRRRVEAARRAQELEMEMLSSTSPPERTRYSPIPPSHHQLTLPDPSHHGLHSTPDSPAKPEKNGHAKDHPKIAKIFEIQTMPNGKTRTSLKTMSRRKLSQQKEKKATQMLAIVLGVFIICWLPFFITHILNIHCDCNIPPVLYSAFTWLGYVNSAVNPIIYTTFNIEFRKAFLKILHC

pertussis toxin
block of agonist-induced PI response [1]: partly blocked | block of agonist-induced increase in inositol phosphate production [1]: almost completely blocked | block of agonist-induced PI response ([2]; m2 receptor co-expressed with −6q): partly blocked | block of agonist-induced increase in inositol phosphate production ([2]; m2 receptor with vector DNA or WTq): almost completely blocked
